Data taken from PMC12376085.

Target: HLA-A2/β2M complex on T2 cells (no pulsed peptide) (human (endogenous in T2) | human)
Experiment: flow cytometry on cells

Row | MFI of surface HLA-A2 on peptide-pulsed T2 cells | Binder
1 | 74200 | RMFPNAPYL [… peptide (WT1 126–134)]
2 | 53900 | ILSLELMKL [… peptide]
